# Measured values reported in paper PMC9482650, “Quantitative fragmentomics allow affinity mapping of interactomes” (Nature Communications, 2022).
# Residue numbers refer to the chain shown, from its start.
# How the values were obtained:
# Assay in all cases: holdup assay
# Set-up in all cases: key: below the threshold = too weak to quantify, mostly under pKd 3.1 to 4
# [1] = molecular target: T1, DLG3_2, Q92796
# T1 sequence (Q92796 221-321, limits assumed, looked up): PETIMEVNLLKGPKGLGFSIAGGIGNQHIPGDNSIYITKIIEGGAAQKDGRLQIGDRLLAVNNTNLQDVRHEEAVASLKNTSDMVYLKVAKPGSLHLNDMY
# [2] = molecular target: T2, APBA1_1, Q02410
# T2 sequence (Q02410 651-752, limits assumed, looked up): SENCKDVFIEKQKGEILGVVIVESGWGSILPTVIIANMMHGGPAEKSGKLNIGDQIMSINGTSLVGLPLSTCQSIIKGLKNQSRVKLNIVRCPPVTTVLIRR
# [3] = molecular target: GRIP2_5, Q9C0E4
# Chain of GRIP2_5, Q9C0E4 (Q9C0E4 544-642): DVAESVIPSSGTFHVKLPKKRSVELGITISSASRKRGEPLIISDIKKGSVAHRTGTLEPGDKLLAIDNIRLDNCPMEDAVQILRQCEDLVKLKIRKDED
# [4] = molecular target: T3, GRIP1_3, Q9Y3R0
# T3 sequence (Q9Y3R0 247-346, limits assumed, looked up): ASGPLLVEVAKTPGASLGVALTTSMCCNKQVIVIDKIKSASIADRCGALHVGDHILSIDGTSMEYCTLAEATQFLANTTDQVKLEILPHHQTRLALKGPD
# [5] = molecular target: MAGI2_3, Q86UL8
# Chain of MAGI2_3, Q86UL8 (Q86UL8 600-682): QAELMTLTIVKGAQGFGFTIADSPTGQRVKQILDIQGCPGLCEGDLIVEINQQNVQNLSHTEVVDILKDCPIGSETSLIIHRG
# [6] = molecular target: T4, LIN7B, Q9HAP6
# T4 sequence (Q9HAP6 88-185, limits assumed, looked up): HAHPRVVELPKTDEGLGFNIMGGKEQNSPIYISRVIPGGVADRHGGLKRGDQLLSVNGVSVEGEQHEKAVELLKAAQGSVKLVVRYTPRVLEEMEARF
# [7] = molecular target: CASK, O14936
# Chain of CASK, O14936 (O14936 487-570): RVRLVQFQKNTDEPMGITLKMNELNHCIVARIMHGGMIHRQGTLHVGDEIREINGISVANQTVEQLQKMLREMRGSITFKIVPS
# [8] = molecular target: T5, PDZRN3_1, Q9UPQ7
# T5 sequence (Q9UPQ7 244-349, limits assumed, looked up): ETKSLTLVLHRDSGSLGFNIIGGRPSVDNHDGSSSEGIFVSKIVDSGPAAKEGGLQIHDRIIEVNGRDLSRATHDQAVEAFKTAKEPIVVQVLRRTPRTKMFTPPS
# [9] = molecular target: GORASP1, Q9BQQ3
# Chain of GORASP1, Q9BQQ3 (Q9BQQ3 1-208): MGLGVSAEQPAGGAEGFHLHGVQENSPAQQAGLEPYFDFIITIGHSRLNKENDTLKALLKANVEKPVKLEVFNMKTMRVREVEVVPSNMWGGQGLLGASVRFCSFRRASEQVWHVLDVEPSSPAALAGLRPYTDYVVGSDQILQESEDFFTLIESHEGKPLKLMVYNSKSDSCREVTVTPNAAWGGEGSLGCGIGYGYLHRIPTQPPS
# [10] = molecular target: T6, MPP7, Q5T2T1
# T6 sequence (Q5T2T1 134-230, limits assumed, looked up): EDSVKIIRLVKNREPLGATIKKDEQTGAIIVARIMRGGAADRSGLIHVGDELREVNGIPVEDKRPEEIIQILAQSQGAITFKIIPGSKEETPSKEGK
# [11] = molecular target: FRMPD4, Q14CM0
# Chain of FRMPD4, Q14CM0 (Q14CM0 67-160): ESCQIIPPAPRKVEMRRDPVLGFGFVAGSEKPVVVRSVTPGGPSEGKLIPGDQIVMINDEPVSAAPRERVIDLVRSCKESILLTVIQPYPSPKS
# [12] = molecular target: NHERF4_2, Q86UT5
# Chain of NHERF4_2, Q86UT5 (Q86UT5 220-308): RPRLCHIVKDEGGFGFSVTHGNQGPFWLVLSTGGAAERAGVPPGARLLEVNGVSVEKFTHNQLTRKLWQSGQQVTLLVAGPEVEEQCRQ
# [13] = molecular target: Inadl_2, Q8NI35
# Chain of Inadl_2, Q8NI35 (Q8NI35 238-335): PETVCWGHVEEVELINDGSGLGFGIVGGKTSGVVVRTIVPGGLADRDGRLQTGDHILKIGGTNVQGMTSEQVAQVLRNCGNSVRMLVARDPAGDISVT
# [14] = molecular target: MAGI2_4, Q86UL8
# Chain of MAGI2_4, Q86UL8 (Q86UL8 772-865): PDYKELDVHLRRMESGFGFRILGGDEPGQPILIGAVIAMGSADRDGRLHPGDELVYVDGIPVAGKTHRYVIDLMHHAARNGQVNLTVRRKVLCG
# [15] = molecular target: T7, ARHGAP21, Q5T5U3
# T7 sequence (Q5T5U3 45-169, limits assumed, looked up): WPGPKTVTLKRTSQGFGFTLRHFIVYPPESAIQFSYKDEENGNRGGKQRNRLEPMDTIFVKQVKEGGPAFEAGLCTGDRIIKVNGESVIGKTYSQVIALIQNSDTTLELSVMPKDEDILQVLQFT
# [16] = molecular target: GRID2IP_1, A4D2P6
# Chain of GRID2IP_1, A4D2P6 (A4D2P6 1-87): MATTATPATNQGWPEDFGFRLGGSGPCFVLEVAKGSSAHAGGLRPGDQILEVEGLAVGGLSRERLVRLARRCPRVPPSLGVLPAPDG
# [17] = molecular target: FRMPD3, Q5JV73
# Chain of FRMPD3, Q5JV73 (Q5JV73 12-100): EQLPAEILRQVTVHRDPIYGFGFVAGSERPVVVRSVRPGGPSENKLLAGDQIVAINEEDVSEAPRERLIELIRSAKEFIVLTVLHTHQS
# [18] = molecular target: GORASP2, Q9H8Y8
# [19] = molecular target: GIPC2, Q8TF65
# Chain of GIPC2, Q8TF65 (Q8TF65 112-203): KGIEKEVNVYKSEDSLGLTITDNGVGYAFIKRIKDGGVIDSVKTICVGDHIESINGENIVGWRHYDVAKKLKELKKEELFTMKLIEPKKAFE
# [20] = molecular target: T8, HTRA3, P83110
# T8 sequence (P83110 354-453, limits assumed, looked up): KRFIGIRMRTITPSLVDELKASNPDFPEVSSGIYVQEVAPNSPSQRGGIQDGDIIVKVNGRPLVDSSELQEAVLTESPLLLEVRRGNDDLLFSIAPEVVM
# [21] = molecular target: T9, LIN7C, Q9NUP9
# T9 sequence (Q9NUP9 88-185, limits assumed, looked up): T4 sequence (Q9HAP6 88-185, limits assumed, looked up) with A2S, D13E, V35I, V40I, Q65H, S79K, R89K, A96S
# [22] = molecular target: DLG4_1, P78352
# Chain of DLG4_1, P78352 (P78352 62-152): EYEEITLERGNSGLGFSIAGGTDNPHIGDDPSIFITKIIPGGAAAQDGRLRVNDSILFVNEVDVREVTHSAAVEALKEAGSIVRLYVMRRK
# [23] = molecular target: LNX1_1, Q8TBB1
# Chain of LNX1_1, Q8TBB1 (Q8TBB1 261-371): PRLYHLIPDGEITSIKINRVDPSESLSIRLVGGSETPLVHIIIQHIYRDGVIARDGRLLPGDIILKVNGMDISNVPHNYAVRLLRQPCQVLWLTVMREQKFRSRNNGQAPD
# [24] = molecular target: T10, GRIP1_4, Q9Y3R0
# T10 sequence (Q9Y3R0 467-571, limits assumed, looked up): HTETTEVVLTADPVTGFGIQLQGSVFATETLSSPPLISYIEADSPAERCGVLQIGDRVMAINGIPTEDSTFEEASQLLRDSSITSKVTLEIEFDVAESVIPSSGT
# [25] = molecular target: T11, DFNB31_2, Q9P202
# T11 sequence (Q9P202 274-371, limits assumed, looked up): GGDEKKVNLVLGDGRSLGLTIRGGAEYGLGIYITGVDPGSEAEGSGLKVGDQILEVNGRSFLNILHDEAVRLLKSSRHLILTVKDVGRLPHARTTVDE
# [26] = plain residues with an end cap or a label only (N-terminal biotin on a linker: ado-ado)
# [27] = modified: phospho on T at position -2 from the C-terminal residue
binder,measurement,setting,value
"PRISRSQSEL [CCDC134, Q9H6E4]",pKd,[1]; [26],3.98
same,pKd,[2]; [26],below the threshold
same,pKd,[3]; [26],below the threshold
same,pKd,[4]; [26],below the threshold
same,pKd,[5]; [26],below the threshold
same,pKd,[6]; [26],3.62
same,pKd,[7]; [26],below the threshold
same,pKd,[8]; [26],3.65
same,pKd,[9]; [26],below the threshold
same,pKd,[10]; [26],below the threshold
same,pKd,[11]; [26],below the threshold
same,pKd,[12]; [26],below the threshold
same,pKd,[13]; [26],below the threshold
same,pKd,[14]; [26],below the threshold
same,pKd,[15]; [26],below the threshold
same,pKd,[16]; [26],below the threshold
same,pKd,[17]; [26],below the threshold
same,pKd,[18]; [26],below the threshold
same,pKd,[19]; [26],below the threshold
same,pKd,[20]; [26],below the threshold
same,pKd,[21]; [26],below the threshold
same,pKd,[22]; [26],below the threshold
same,pKd,[23]; [26],3.67
same,pKd,[24]; [26],below the threshold
same,pKd,[25]; [26],below the threshold
"QPCFNKLFPL [LPXN, O60711]",pKd,[1]; [26],below the threshold
same,pKd,[2]; [26],below the threshold
same,pKd,[3]; [26],below the threshold
same,pKd,[4]; [26],below the threshold
same,pKd,[5]; [26],below the threshold
same,pKd,[6]; [26],below the threshold
same,pKd,[7]; [26],below the threshold
same,pKd,[8]; [26],below the threshold
same,pKd,[9]; [26],3.68
same,pKd,[10]; [26],4.05
same,pKd,[11]; [26],4.64
same,pKd,[12]; [26],below the threshold
same,pKd,[13]; [26],below the threshold
same,pKd,[14]; [26],below the threshold
same,pKd,[15]; [26],3.91
same,pKd,[16]; [26],below the threshold
same,pKd,[17]; [26],below the threshold
same,pKd,[18]; [26],4
same,pKd,[19]; [26],below the threshold
same,pKd,[20]; [26],below the threshold
same,pKd,[21]; [26],below the threshold
same,pKd,[22]; [26],below the threshold
same,pKd,[23]; [26],below the threshold
same,pKd,[24]; [26],below the threshold
same,pKd,[25]; [26],below the threshold
"LPHPHSTTRV [NLGN2, Q8NFZ4]",pKd,[1]; [26],3.96
same,pKd,[2]; [26],below the threshold
same,pKd,[3]; [26],below the threshold
same,pKd,[4]; [26],below the threshold
same,pKd,[5]; [26],4.24
same,pKd,[6]; [26],3.58
same,pKd,[7]; [26],below the threshold
same,pKd,[8]; [26],below the threshold
same,pKd,[9]; [26],3.58
same,pKd,[10]; [26],below the threshold
same,pKd,[11]; [26],below the threshold
same,pKd,[12]; [26],below the threshold
same,pKd,[13]; [26],below the threshold
same,pKd,[14]; [26],3.72
same,pKd,[15]; [26],3.71
same,pKd,[16]; [26],below the threshold
same,pKd,[17]; [26],below the threshold
same,pKd,[18]; [26],3.92
same,pKd,[19]; [26],below the threshold
same,pKd,[20]; [26],below the threshold
same,pKd,[21]; [26],below the threshold
same,pKd,[22]; [26],below the threshold
same,pKd,[23]; [26],3.64
same,pKd,[24]; [26],below the threshold
same,pKd,[25]; [26],below the threshold
"SSALYGESDL [ACTN2, P35609]",pKd,[1]; [26],4.18
same,pKd,[2]; [26],below the threshold
same,pKd,[3]; [26],below the threshold
same,pKd,[4]; [26],below the threshold
same,pKd,[5]; [26],below the threshold
same,pKd,[6]; [26],3.76
same,pKd,[7]; [26],below the threshold
same,pKd,[8]; [26],below the threshold
same,pKd,[9]; [26],below the threshold
same,pKd,[10]; [26],below the threshold
same,pKd,[11]; [26],below the threshold
same,pKd,[12]; [26],below the threshold
same,pKd,[13]; [26],below the threshold
same,pKd,[14]; [26],below the threshold
same,pKd,[15]; [26],below the threshold
same,pKd,[16]; [26],below the threshold
same,pKd,[17]; [26],below the threshold
same,pKd,[18]; [26],below the threshold
same,pKd,[19]; [26],4.09
same,pKd,[20]; [26],below the threshold
same,pKd,[21]; [26],below the threshold
same,pKd,[22]; [26],below the threshold
same,pKd,[23]; [26],3.86
same,pKd,[24]; [26],below the threshold
same,pKd,[25]; [26],below the threshold
"RLQRRRETQV [HPV18-E6_-2P, P06463]",pKd,[1]; [27],below the threshold
same,pKd,[2]; [27],below the threshold
same,pKd,[3]; [27],below the threshold
same,pKd,[4]; [27],below the threshold
same,pKd,[5]; [27],below the threshold
same,pKd,[6]; [27],below the threshold
same,pKd,[7]; [27],below the threshold
same,pKd,[8]; [27],below the threshold
same,pKd,[9]; [27],below the threshold
same,pKd,[10]; [27],below the threshold
same,pKd,[11]; [27],below the threshold
same,pKd,[12]; [27],below the threshold
same,pKd,[13]; [27],below the threshold
same,pKd,[14]; [27],below the threshold
same,pKd,[15]; [27],4.03
same,pKd,[16]; [27],below the threshold
same,pKd,[17]; [27],below the threshold
same,pKd,[18]; [27],4.13
same,pKd,[19]; [27],below the threshold
same,pKd,[20]; [27],below the threshold
same,pKd,[21]; [27],4.07
same,pKd,[22]; [27],below the threshold
same,pKd,[23]; [27],below the threshold
same,pKd,[24]; [27],below the threshold
same,pKd,[25]; [27],below the threshold
